Laboratory results reported in the supplement of paper PMC11246515.
± gives the standard deviation of the averaged measurements.

Experiment: total protein half-life in vivo (active degradation + dilution); higher = more stable protein
[1] = E. coli NCM3722 delta-clpP delta-lon delta-hslV, growth: N-lim chemostat, doubling time 6 h
[2] = E. coli NCM3722 delta-clpP, growth: N-lim chemostat, doubling time 6 h
[3] = E. coli NCM3722 delta-hslV, growth: N-lim chemostat, doubling time 6 h
[4] = E. coli NCM3722 delta-lon, growth: N-lim chemostat, doubling time 6 h
[5] = E. coli NCM3722 delta-smpB, growth: N-lim chemostat, doubling time 6 h
[6] = wild type E. coli NCM3722, growth: C-lim chemostat, doubling time 3 h
[7] = wild type E. coli NCM3722, growth: C-lim chemostat, doubling time 6 h
[8] = wild type E. coli NCM3722, growth: C-lim chemostat, doubling time 12 h
[9] = wild type E. coli NCM3722, growth: N-lim chemostat, doubling time 6 h
[10] = wild type E. coli NCM3722, growth: N-lim chemostat, doubling time 12 h
[11] = wild type E. coli NCM3722, growth: P-lim chemostat, doubling time 6 h
[12] = wild type E. coli NCM3722, growth: P-lim chemostat, doubling time 12 h

Sequence | total protein half-life in vivo [1] | total protein half-life in vivo [2] | total protein half-life in vivo [3] | total protein half-life in vivo [4] | total protein half-life in vivo [5] | total protein half-life in vivo [6] | total protein half-life in vivo [7] | total protein half-life in vivo [8] | total protein half-life in vivo [9] | total protein half-life in vivo [10] | total protein half-life in vivo [11] | total protein half-life in vivo [12]
MAKSVPAIFLDRDGTINVDHGYVHEIDNFEFIDGVIDAMRELKKMGFALVVVTNQSGIARGKFTEAQFETLTEWMDWSLADRDVDLDGIYYCPHHPQGSVEEFRQVCDCRKPHPGMLLSARDYLHIDMAASYMVGDKLEDMQAAVAANVGTKVLVRTGKPITPEAENAADWVLNSLADLPQAIKKQQKPAQ | 5.54 ± 0.29 h | 5.269 ± 0.022 h | 4.97 ± 0.51 h | 5.62 ± 0.25 h | 4.95 ± 0.083 h | 2.54 ± 0.091 h | 4.782 ± 0.0071 h | 13.4 ± 3.2 h | 5.05 ± 0.25 h | 8.7 ± 0.32 h | 5.49 ± 0.68 h | 11.4 ± 1.5 h
MKVIIVEDEFLAQQELSWLIKEHSQMEIVGTFDDGLDVLKFLQHNRVDAIFLDINIPSLDGVLLAQNISQFAHKPFIVFITAWKEHAVEAFELEAFDYILKPYQESRITGMLQKLEAAWQQQQTSSTPAATVTRENDTINLVKDERIIVTPINDIYYAEAHEKMTFVYTRRESYVMPMNITEFCSKLPPSHFFRCHRSFCVNLNKIREIEPWFNNTYILRLKDLDFEVPVSRSKVKEFRQLMHL [P0AE39] | 5.23 ± 0.21 h | 4.51 ± 0.32 h | 4.019 ± 0.0042 h | 4.73 ± 0.72 h | 4.01 ± 0.061 h | 2.8 ± 0.42 h | 6 ± 0.71 h | 8.85 ± 0.64 h | 4.44 ± 0.42 h | 7.31 ± 0.66 h | 4.93 ± 0.72 h | 9.66 ± 0.46 h
MKWDWIFFDADETLFTFDSFTGLQRMFLDYSVTFTAEDFQDYQAVNKPLWVDYQNGAITSLQLQHGRFESWAERLNVEPGKLNEAFINAMAEICTPLPGAVSLLNAIRGNAKIGIITNGFSALQQVRLERTGLRDYFDLLVISEEVGVAKPNKKIFDYALEQAGNPDRSRVLMVGDTAESDILGGINAGLATCWLNAHHREQPEGIAPTWTVSSLHELEQLLCKH [P0A8Y1] | 5.28 ± 0.098 h | 0.513 h | – | 0.534 h | 0.471 ± 0.024 h | 0.631 ± 0.016 h | 0.671 h | 2.97 h | 1.11 h | 1.51 h | 0.949 ± 0.33 h | –
MSMVETAPSKIQVRNLNFYYGKFHALKNINLDIAKNQVTAFIGPSGCGKSTLLRTFNKMFELYPEQRAEGEILLDGDNILTNSQDIALLRAKVGMVFQKPTPFPMSIYDNIAFGVRLFEKLSRADMDERVQWALTKAALWNETKDKLHQSGYSLSGGQQQRLCIARGIAIRPEVLLLDEPCSALDPISTGRIEELITELKQDYTVVIVTHNMQQAARCSDHTAFMYLGELIEFSNTDDLFTKPAKKQTEDYITGRYG [P0AAH0] | 5.28 ± 0.14 h | – | 4.78 ± 0.28 h | 5.5 ± 0.56 h | 4.68 ± 0.39 h | 3.05 ± 0.094 h | – | 9.16 ± 0.51 h | 4.81 ± 0.24 h | 9.09 ± 0.47 h | 5.49 ± 0.53 h | 12.1 ± 0.36 h
MRILHTSDWHLGQNFYSKSREAEHQAFLDWLLETAQTHQVDAIIVAGDVFDTGSPPSYARTLYNRFVVNLQQTGCHLVVLAGNHDSVATLNESRDIMAFLNTTVVASAGHAPQILPRRDGTPGAVLCPIPFLRPRDIITSQAGLNGIEKQQHLLAAITDYYQQHYADACKLRGDQPLPIIATGHLTTVGASKSDAVRDIYIGTLDAFPAQNFPPADYIALGHIHRAQIIGGMEHVRYCGSPIPLSFDECGKSKYVHLVTFSNGKLESVENLNVPVTQPMAVLKGDLASITAQLEQWRDVSQEPPVWLDIEITTDEYLHDIQRKIQALTESLPVEVLLVRRSREQRERVLASQQRETLSELSVEEVFNRRLALEELDESQQQRLQHLFTTTLHTLAGEHEA [P0AG76] | 5.77 ± 0.37 h | 4.79 ± 1.6 h | 4.67 ± 0.67 h | 4.54 ± 0.071 h | 4.5 ± 0.46 h | 2.6 ± 0.049 h | 5.4 ± 0.27 h | 9.11 ± 1.4 h | 4.54 ± 0.17 h | 7.66 ± 0.56 h | 5.46 ± 0.31 h | 7.9 ± 0.1 h
MELLCPAGNLPALKAAIENGADAVYIGLKDDTNARHFAGLNFTEKKLQEAVSFVHQHRRKLHIAINTFAHPDGYARWQRAVDMAAQLGADALILADLAMLEYAAERYPHIERHVSVQASATNEEAINFYHRHFDVARVVLPRVLSIHQVKQLARVTPVPLEVFAFGSLCIMSEGRCYLSSYLTGESPNTIGACSPARFVRWQQTPQGLESRLNEVLIDRYQDGENAGYPTLCKGRYLVDGERYHALEEPTSLNTLELLPELMAANIASVKIEGRQRSPAYVSQVAKVWRQAIDRCKADPQNFVPQSAWMETLGSMSEGTQTTLGAYHRKWQ | 4.53 h | – | – | – | – | – | – | – | – | – | – | –
